Patent US20210246166A1 (Bayer, published 2021)
Numbered stars: 1 amine (or outer) side, 2 acyl side, 3 side chain; on linkers, the order of the positions; unused ones are H or OH. Bridge positions count the residues as written; N and C are the ends. Square brackets hold non-standard residues; d marks the D form. Ends that are not written are not given here. X17 = 2‑((1S,2S)-1-(Amino)-2-methylbutyl)‑1,3‑oxazole‑4‑carboxylic acid, CC[C@H](C)[C@H](N[*:1])c1nc(C(=O)[*:2])co1; Pro(4-spirocPr) = O=C(O)[C@@H]1CC2(CC2)CN1; Oic = O=C(O)[C@@H]1C[C@@H]2CCCC[C@@H]2N1; tBuAla = CC(C)(C)C[C@H](N)C(=O)O; PEG4 = NCCOCCOCCOCCOCCC(=O)O; Pen = CC(C)(S)[C@H](N)C(=O)O; NMeC = CN[C@@H](CS)C(=O)O; NMeA = CN[C@@H](C)C(=O)O; Nle = CCCC[C@H](N)C(=O)O; Sar = CNCC(=O)O

T1: recombinant human MASP1 active protease (amino acids 297-699, C-terminal His Tag) (human, UniProt P48740 297-699)
T1 sequence: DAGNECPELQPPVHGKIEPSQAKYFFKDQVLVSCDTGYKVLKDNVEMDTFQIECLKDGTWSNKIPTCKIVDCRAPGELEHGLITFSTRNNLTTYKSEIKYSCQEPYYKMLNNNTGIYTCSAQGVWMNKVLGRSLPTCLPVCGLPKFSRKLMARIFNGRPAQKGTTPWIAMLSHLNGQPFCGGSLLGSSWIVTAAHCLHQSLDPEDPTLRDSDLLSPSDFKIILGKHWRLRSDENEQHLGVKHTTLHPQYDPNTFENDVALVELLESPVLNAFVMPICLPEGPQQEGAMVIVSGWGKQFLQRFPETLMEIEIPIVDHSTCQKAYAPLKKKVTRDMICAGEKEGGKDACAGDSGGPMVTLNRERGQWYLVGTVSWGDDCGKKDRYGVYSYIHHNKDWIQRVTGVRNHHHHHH

B1: ((N-Me)A)-IC+SRS-((tBu)A)-P-(Oic)-I-(Pen)+IP-NH2 (peptide)
peptide: [NMeA]ICSRS[tBuAla]P[Oic]I[Pen]IP-NH2
modifications: disulfide 3-11; N-terminus assumed
SMILES: CC[C@H](C)[C@H](NC(=O)[C@H](C)NC)C(=O)N[C@H]1CSSC(C)(C)[C@@H](C(=O)N[C@H](C(=O)N2CCC[C@H]2C(N)=O)[C@@H](C)CC)NC(=O)[C@H]([C@@H](C)CC)NC(=O)[C@@H]2C[C@@H]3CCCC[C@@H]3N2C(=O)[C@@H]2CCCN2C(=O)[C@H](CC(C)(C)C)NC(=O)[C@H](CO)NC(=O)[C@H](CCCNC(=N)N)NC(=O)[C@H](CO)NC1=O
B2: AIC+SRS-((tBu)A)-PPI-(Pen)+IPn-NH2 (peptide)
peptide: AICSRS[tBuAla]PPI[Pen]IP[dN]-NH2
modifications: disulfide 3-11; N-terminus assumed
SMILES: CC[C@H](C)[C@H](NC(=O)[C@H](C)N)C(=O)N[C@H]1CSSC(C)(C)[C@@H](C(=O)N[C@H](C(=O)N2CCC[C@H]2C(=O)N[C@H](CC(N)=O)C(N)=O)[C@@H](C)CC)NC(=O)[C@H]([C@@H](C)CC)NC(=O)[C@@H]2CCCN2C(=O)[C@@H]2CCCN2C(=O)[C@H](CC(C)(C)C)NC(=O)[C@H](CO)NC(=O)[C@H](CCCNC(=N)N)NC(=O)[C@H](CO)NC1=O
B3: AIC+SRS-((tBu)A)-PPI-((N-Me)C)+(2-[(1S,2S)-1-(Amino)-2-methylbutyl]-1,3-oxazole-4-carboxylic acid)-D-NH2 (peptide)
peptide: AICSRS[tBuAla]PPI[NMeC][X17]D-NH2
modifications: disulfide 3-11; N-terminus assumed
SMILES: CC[C@H](C)[C@H](NC(=O)[C@H](C)N)C(=O)N[C@H]1CSSC[C@@H](C(=O)N[C@H](c2nc(C(=O)N[C@@H](CC(=O)O)C(N)=O)co2)[C@@H](C)CC)N(C)C(=O)[C@H]([C@@H](C)CC)NC(=O)[C@@H]2CCCN2C(=O)[C@@H]2CCCN2C(=O)[C@H](CC(C)(C)C)NC(=O)[C@H](CO)NC(=O)[C@H](CCCNC(=N)N)NC(=O)[C@H](CO)NC1=O
B4: RIC+SRS-((tBu)A)-PPI-((N-Me)C)+IPD-NH2 (peptide)
peptide: RICSRS[tBuAla]PPI[NMeC]IPD-NH2
modifications: disulfide 3-11; N-terminus assumed
SMILES: CC[C@H](C)[C@H](NC(=O)[C@@H](N)CCCNC(=N)N)C(=O)N[C@H]1CSSC[C@@H](C(=O)N[C@H](C(=O)N2CCC[C@H]2C(=O)N[C@@H](CC(=O)O)C(N)=O)[C@@H](C)CC)N(C)C(=O)[C@H]([C@@H](C)CC)NC(=O)[C@@H]2CCCN2C(=O)[C@@H]2CCCN2C(=O)[C@H](CC(C)(C)C)NC(=O)[C@H](CO)NC(=O)[C@H](CCCNC(=N)N)NC(=O)[C@H](CO)NC1=O
B5: AIC+SRSLP-((6S)-5-Azaspiro[2.4]heptane-6-carboxylic acid)-I-(Pen)+IPD-NH2 (peptide)
peptide: AICSRSLP[Pro(4-spirocPr)]I[Pen]IPD-NH2
modifications: disulfide 3-11; N-terminus assumed
SMILES: CC[C@H](C)[C@H](NC(=O)[C@H](C)N)C(=O)N[C@H]1CSSC(C)(C)[C@@H](C(=O)N[C@H](C(=O)N2CCC[C@H]2C(=O)N[C@@H](CC(=O)O)C(N)=O)[C@@H](C)CC)NC(=O)[C@H]([C@@H](C)CC)NC(=O)[C@@H]2CC3(CC3)CN2C(=O)[C@@H]2CCCN2C(=O)[C@H](CC(C)C)NC(=O)[C@H](CO)NC(=O)[C@H](CCCNC(=N)N)NC(=O)[C@H](CO)NC1=O
B6: ((N-Me)A)-IC+SRS-((tBu)A)-PPI-(Pen)+IPD-NH2 (peptide)
peptide: [NMeA]ICSRS[tBuAla]PPI[Pen]IPD-NH2
modifications: disulfide 3-11; N-terminus assumed
SMILES: CC[C@H](C)[C@H](NC(=O)[C@H](C)NC)C(=O)N[C@H]1CSSC(C)(C)[C@@H](C(=O)N[C@H](C(=O)N2CCC[C@H]2C(=O)N[C@@H](CC(=O)O)C(N)=O)[C@@H](C)CC)NC(=O)[C@H]([C@@H](C)CC)NC(=O)[C@@H]2CCCN2C(=O)[C@@H]2CCCN2C(=O)[C@H](CC(C)(C)C)NC(=O)[C@H](CO)NC(=O)[C@H](CCCNC(=N)N)NC(=O)[C@H](CO)NC1=O
B7: AIC+SRS-((tBu)A)-PPI-((N-Me)C)+I-NH2 (peptide)
peptide: AICSRS[tBuAla]PPI[NMeC]I-NH2
modifications: disulfide 3-11; N-terminus assumed
SMILES: CC[C@H](C)[C@H](NC(=O)[C@@H]1CSSC[C@H](NC(=O)[C@@H](NC(=O)[C@H](C)N)[C@@H](C)CC)C(=O)N[C@@H](CO)C(=O)N[C@@H](CCCNC(=N)N)C(=O)N[C@@H](CO)C(=O)N[C@@H](CC(C)(C)C)C(=O)N2CCC[C@H]2C(=O)N2CCC[C@H]2C(=O)N[C@@H]([C@@H](C)CC)C(=O)N1C)C(N)=O
B8: ((N-Me)G)-IC+SRS-((tBu)A)-PPI-(Pen)+IP-(PEG3(16atoms))-NH2 (peptide)
peptide: [Sar]ICSRS[tBuAla]PPI[Pen]IP[PEG4]-NH2
modifications: disulfide 3-11; N-terminus assumed
SMILES: CC[C@H](C)[C@H](NC(=O)CNC)C(=O)N[C@H]1CSSC(C)(C)[C@@H](C(=O)N[C@H](C(=O)N2CCC[C@H]2C(=O)NCCOCCOCCOCCOCCC(N)=O)[C@@H](C)CC)NC(=O)[C@H]([C@@H](C)CC)NC(=O)[C@@H]2CCCN2C(=O)[C@@H]2CCCN2C(=O)[C@H](CC(C)(C)C)NC(=O)[C@H](CO)NC(=O)[C@H](CCCNC(=N)N)NC(=O)[C@H](CO)NC1=O
B9: (Nle)-IC+SRS-((tBu)A)-PPI-((N-Me)C)+I-NH2 (peptide)
peptide: [Nle]ICSRS[tBuAla]PPI[NMeC]I-NH2
modifications: disulfide 3-11; N-terminus assumed
SMILES: CCCC[C@H](N)C(=O)N[C@H](C(=O)N[C@H]1CSSC[C@@H](C(=O)N[C@H](C(N)=O)[C@@H](C)CC)N(C)C(=O)[C@H]([C@@H](C)CC)NC(=O)[C@@H]2CCCN2C(=O)[C@@H]2CCCN2C(=O)[C@H](CC(C)(C)C)NC(=O)[C@H](CO)NC(=O)[C@H](CCCNC(=N)N)NC(=O)[C@H](CO)NC1=O)[C@@H](C)CC
B10: AIC+SRS-((tBu)A)-PPI-(Pen)+IPe-NH2 (peptide)
peptide: AICSRS[tBuAla]PPI[Pen]IP[dE]-NH2
modifications: disulfide 3-11; N-terminus assumed
SMILES: CC[C@H](C)[C@H](NC(=O)[C@H](C)N)C(=O)N[C@H]1CSSC(C)(C)[C@@H](C(=O)N[C@H](C(=O)N2CCC[C@H]2C(=O)N[C@H](CCC(=O)O)C(N)=O)[C@@H](C)CC)NC(=O)[C@H]([C@@H](C)CC)NC(=O)[C@@H]2CCCN2C(=O)[C@@H]2CCCN2C(=O)[C@H](CC(C)(C)C)NC(=O)[C@H](CO)NC(=O)[C@H](CCCNC(=N)N)NC(=O)[C@H](CO)NC1=O

Molecular target: T1, recombinant human MASP1 active protease …
Assay: cell-based or functional assay

human MASP1 IC50 | Binder
1.4 nM | B1
1.53 nM | AICSRS[tBuAla]PPI[NMeC]IPD-NH2 (disulfide 3-11; also: HCl salt) [AIC+SRS-((tBu)A)-PPI-((N-Me)C)+IPD-NH2 (HCl salt)]
1.4 nM | B2
1.4 nM | B3
1.36 nM | B4
1.33 nM | B5
1.43 nM | B6
1.5 nM | B7
1.3 nM | B8
1.5 nM | B9
1.4 nM | B10

Molecular target: recombinant human MASP2 active protease (amino acids 297-686, C-terminal His Tag) (human, UniProt O00187 297-686)
Assay: cell-based or functional assay

Sequence of recombinant human MASP2 active protease (amino acids 297-686, C-terminal His Tag) (O00187 other isoform, or with tags, fused parts or gaps limits assumed): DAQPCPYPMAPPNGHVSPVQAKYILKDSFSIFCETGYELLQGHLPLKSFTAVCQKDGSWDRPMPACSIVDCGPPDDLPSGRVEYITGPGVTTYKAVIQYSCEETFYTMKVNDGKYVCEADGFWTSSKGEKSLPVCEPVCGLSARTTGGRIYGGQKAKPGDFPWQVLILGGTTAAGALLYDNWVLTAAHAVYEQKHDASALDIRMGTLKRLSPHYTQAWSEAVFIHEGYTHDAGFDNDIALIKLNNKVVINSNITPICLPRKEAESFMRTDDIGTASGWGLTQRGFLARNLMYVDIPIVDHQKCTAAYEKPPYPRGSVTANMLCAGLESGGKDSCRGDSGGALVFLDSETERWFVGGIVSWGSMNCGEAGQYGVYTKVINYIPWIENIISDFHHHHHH

human MASP2 IC50 | Binder
40 nM | B1
140 nM | AICSRS[tBuAla]PPI[NMeC]IPD-NH2 (disulfide 3-11; also: HCl salt) [AIC+SRS-((tBu)A)-PPI-((N-Me)C)+IPD-NH2 (HCl salt)]
53 nM | B2
720 nM | B3
100 nM | B4
18 nM | B5
98 nM | B6
100 nM | B7
28 nM | B8
56 nM | B9
62 nM | B10
